In data set [1] the target is T1, OC2 DNA-binding domain (UniProt O95948 330-485).
T1 sequence: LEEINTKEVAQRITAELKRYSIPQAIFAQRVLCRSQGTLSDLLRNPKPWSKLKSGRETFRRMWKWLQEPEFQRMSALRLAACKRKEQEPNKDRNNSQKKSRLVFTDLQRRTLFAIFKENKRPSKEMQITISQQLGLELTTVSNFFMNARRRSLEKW
Description: SPR.

Data set [2] addresses T1, OC2 DNA-binding domain. Description: SPR. The source holds these as a separate data set.

B1: UGT2B15 promoter 20 bp WT (dsDNA)
DNA 1: TAACTTGATTGATTTTTCCT
DNA 2: AGGAAAAATCAATCAAGTTA
As usually defined, the Kd is the free concentration of one partner at which half of the binding sites on the other are occupied at equilibrium, for simple one-to-one binding. A higher Kd goes with a looser complex. The molecule B1 registered a dissociation constant Kd with OC2 DNA-binding domain [1] of 1.13 ± 0.01 nM.

B2: UGT2B15 promoter 20 bp mutant (dsDNA)
DNA 1: TAACTTGGCTGTCTTTTCCT
DNA 2: AGGAAAAGACAGCCAAGTTA
Consider B2, for which the binding result in the data set with OC2 DNA-binding domain [2] is on record as “no binding”.

The values above are taken from publication PMC11260453.
